This passage reports Km results from publication PMC10610038, “New Insights into the Enhancement of Adventitious Root Formation Using N,N′-Bis(2,3-methylenedioxyphenyl)urea” (Plants, 2023).

Substrate in the data set: C/C(=C\CNc1ncnc2[nH]cnc12)CO
As to the kind of experiment: purified protein. As to conditions: FAD.

B1: ZmCKX1 (cytokinin oxidase/dehydrogenase) (Zea mays) (protein)
chain: LAAGTPALGDDRGRPWPASLAALALDGKLRTDSNATAAASTDFGNITSALPAAVLYPSSTGDLVALLSAANSTPGWPYTIAFRGRGHSLMGQAFAPGGVVVNMASLGDAAAPPRINVSADGRYVDAGGEQVWIDVLRASLARGVAPRSWNDYLYLTVGGTLSNAGISGQAFRHGPQISNVLEMDVITGHGEMVTCSKQLNADLFDAVLGGLGQFGVITRARIAVEPAPARARWVRFVYTDFAAFSADQERLTAPRPGGGGASFGPMSYVEGSVFVNQSLATDLANTGFFTDADVARIVALAGERNATTVYSIEATLNYDNATAAAAAVDQELASVLGTLSYVEGFAFQRDVAYAAFLDRVHGEEVALNKLGLWRVPHPWLNMFVPRSRIADFDRGVFKGILQGTDIVGPLIVYPLNKSMWDDGMSAATPSEDVFYAVSLLFSSVAPNDLARLQEQNRRILRFCDLAGIQYKTYLARHTDRSDWVRHFGAAKWNRFVEMKNKYDPKRLLSPGQDIFN
In the case of B1, the Km was determined as 6.8 ± 1.3 µM.

As usually defined, the Km is the concentration of substrate that gives half-maximal velocity.
